# Experimental data published in publication PMC12585908, “Proteolytic cleavage activates the mitochondrial isoform of TOP3A”.
# T1: TOP3A 917 (truncated) (Homo sapiens, UniProt Q13472 16-917)
# T1 sequence: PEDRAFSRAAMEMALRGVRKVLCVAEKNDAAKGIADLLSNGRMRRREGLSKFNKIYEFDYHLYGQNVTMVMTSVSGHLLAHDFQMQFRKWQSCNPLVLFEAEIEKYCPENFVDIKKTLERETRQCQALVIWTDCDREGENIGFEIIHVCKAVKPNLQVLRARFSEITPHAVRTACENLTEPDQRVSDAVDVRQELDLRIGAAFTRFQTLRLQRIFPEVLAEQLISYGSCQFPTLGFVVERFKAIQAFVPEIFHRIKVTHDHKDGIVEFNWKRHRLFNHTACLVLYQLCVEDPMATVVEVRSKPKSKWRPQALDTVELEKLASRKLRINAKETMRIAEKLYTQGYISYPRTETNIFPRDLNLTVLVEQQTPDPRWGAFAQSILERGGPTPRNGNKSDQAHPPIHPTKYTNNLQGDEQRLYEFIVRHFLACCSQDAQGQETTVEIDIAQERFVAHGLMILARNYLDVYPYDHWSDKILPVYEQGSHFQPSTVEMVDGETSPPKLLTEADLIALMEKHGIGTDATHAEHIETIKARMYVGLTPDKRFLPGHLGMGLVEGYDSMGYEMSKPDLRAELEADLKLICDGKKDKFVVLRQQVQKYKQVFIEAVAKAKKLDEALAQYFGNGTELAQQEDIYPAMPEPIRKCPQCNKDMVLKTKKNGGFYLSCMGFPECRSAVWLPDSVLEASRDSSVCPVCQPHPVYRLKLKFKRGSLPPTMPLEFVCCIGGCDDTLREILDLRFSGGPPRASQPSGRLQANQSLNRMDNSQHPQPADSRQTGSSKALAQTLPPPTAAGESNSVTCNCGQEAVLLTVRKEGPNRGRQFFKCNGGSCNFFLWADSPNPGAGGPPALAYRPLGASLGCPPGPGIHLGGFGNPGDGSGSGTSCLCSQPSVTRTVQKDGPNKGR
# Molecular target: T1, TOP3A 917 (truncated)
# Assay: EMSA; no Mg2+ added; higher binding than full-length; 25 mM HEPES pH 7.5, 70 mM NaCl, 100 ug/ml BSA, 1 mM DTT, 10% glycerol, 10 fmol DNA in 20 ul, 37 C 15 min; 8% PAGE in 0.5x TBE at 4 C
# Conditions: protein: recombinant; tags: 6xHis removed with TEV (cloning section: N-terminal TEV-cleavable 6xHis; purification section says C-terminal 6xHis); label: 5' 32P; single strand
binder,measurement,value
TGTTATTATTATGTCCTACAAGCATTAATTAATTAACACA (ssDNA) [EMSA substrate (40 nt ssDNA)],binding result,binds
